These are literature values, as cited in publication PMC3036710.

What all share (experiment): solid-phase binding
For one data set, the target named is HMGB-1 (Homo sapiens) (UniProt P09429).
Data set [1] deals with S100b calgranulin (Homo sapiens) (UniProt P04271).
Data set [2] addresses CML-bovine serum albumin (Bos taurus) (UniProt P02769).
Sequence of UniProt P02769 (P02769 25-607): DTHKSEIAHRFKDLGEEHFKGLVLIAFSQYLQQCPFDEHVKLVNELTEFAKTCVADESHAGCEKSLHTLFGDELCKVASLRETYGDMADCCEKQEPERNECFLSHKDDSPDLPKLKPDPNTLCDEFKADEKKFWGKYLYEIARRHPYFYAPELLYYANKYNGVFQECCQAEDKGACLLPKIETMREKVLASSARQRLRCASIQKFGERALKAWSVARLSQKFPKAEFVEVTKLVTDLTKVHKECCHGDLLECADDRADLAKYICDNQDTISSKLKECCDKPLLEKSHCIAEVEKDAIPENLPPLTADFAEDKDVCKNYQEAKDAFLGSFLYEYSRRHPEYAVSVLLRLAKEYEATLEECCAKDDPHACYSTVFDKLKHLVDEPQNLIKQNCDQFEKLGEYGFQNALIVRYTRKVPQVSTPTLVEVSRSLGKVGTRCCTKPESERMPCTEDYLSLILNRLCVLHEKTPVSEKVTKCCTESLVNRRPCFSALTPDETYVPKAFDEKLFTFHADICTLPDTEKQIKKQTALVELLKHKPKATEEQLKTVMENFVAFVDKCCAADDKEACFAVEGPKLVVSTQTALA

Sequence of UniProt P04271 (P04271 2-92): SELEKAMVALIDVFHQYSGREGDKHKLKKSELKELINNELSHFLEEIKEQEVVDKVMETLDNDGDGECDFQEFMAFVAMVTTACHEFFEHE
Sequence of UniProt P09429 (P09429 whole entry): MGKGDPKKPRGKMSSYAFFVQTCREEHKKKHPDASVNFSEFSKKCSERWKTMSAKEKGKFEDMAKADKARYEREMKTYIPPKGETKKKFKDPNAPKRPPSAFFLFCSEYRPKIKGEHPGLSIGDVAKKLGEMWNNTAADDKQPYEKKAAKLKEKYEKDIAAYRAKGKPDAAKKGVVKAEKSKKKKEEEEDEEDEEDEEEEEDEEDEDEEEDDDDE

In the case of RAGE (from UniProt Q15109), the Kd – broadly, a measure of binding affinity in units of concentration – with HMGB-1 (Homo sapiens) was 0.64 nM; in data set [1], 0.45 nM; in data set [2], 0.43 nM.
